The supplement of paper PMC9170038

System: MS2 coat protein
Assay: apparent KD of MS2 coat protein; designed switch direction (-1 OFF switch, 1 ON switch): -1; higher = weaker reporter binding
Procedure, shortened: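 Each step of the titration lasted 0.8–1.5 h at the lowest concentration and 10–20 min at the highest. The protein, SNAP-549-labelled MS2 coat protein, went from 0.7 or 1.5 nM doubling to 3 µM over RNA switches transcribed on Illumina chips by stalled E. coli RNA polymerase. Normalised cluster fluorescence was curve-fitted, and the per-design median over clusters is given as apparent KD.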

[1] = input ligand: microRNA oligo, concentration not stated
[2] = Eterna round: R95, input ligand: microRNA oligo, concentration not stated
[3] = Eterna round: R95, input ligand: FMN 200 uM
[4] = Eterna round: R95, input ligand: none

Sequence | apparent KD of MS2 coat protein (input ligand: FMN 200 uM) [µM] | apparent KD of MS2 coat protein (input ligand: none) [µM] | further results
UCGUGUAUAGAGGAUAUAUUAUUUUUUAAAACAAUAGAAGGCUAAACAUGAGGAUCACCCAUGUAUUUGGUUUU [JR_Ex6_Sub053] (Eterna round: R97, puzzle: Exclusion 6) | 0.0821 | 0.0196 | 
GAAUAACAUGAGGAUCACCCAUGUUAGGAUAUGACGUCGUUUAGUCUUUAAACGAGCGUUAGAAGGAACAGGUG [Eternabot (L1) Solution 11] (Eterna round: R97, puzzle: Exclusion 1) | 0.0708 | 0.0568 | 
GGCGGACAUGAGGAUCACCCAUGUCAGGAUAUUAGGCGAUCGUCGAAAGACGAUAGCCUGAGAAGGGACGCGCC [Eli x1 4.13] (Eterna round: R97, puzzle: Exclusion 1) | 0.0206 | 0.0177 | 
AUCGUGCAGCUUUGCUGUACGAGUACAUGAGGAUCACCCAUGUAGGAUAUGGUACGCUUUGCGUGCUAGAAGGAUAUGCGAUUG [EX ENG3 1.46] (Eterna round: R96, puzzle: Exclusion NG 3) |  |  | apparent KD of MS2 coat protein [1]: 0.0365 µM
AGGUAACAUGAGGAUCACCCAUGUCAGGAUAUCAGUAAGAUGAGUAUAGAAGAGAGUAUGAGAAGGGACUAUAU [Excluse me! 25 - Jieux - Exclusion 1] (puzzle: Exclusion 1) |  |  | apparent KD of MS2 coat protein [2]: 0.0312 µM
AAAAGGUGAGGAUAUCCGACGUUGCACUUGAGGAUCACCCAAGUUCCUCGCGUGCUUUUAGGAGAAGGCACAAAAC [Tegezaza] (Eterna round: R97, puzzle: Exclusion 5) | 0.0773 | 0.982 | 
UAAAAGCUAGGAUAUACAUGAGGAUCACCCAUGUAUUAGGGCAUGAAAUCGGUCCCACGUAGAAGGAGCGACAC [Dilaxeed] (Eterna round: R97, puzzle: Exclusion 3) | 0.105 | 0.0245 | 
UAGGAUACCGUCAGGAUAUAGAGUUCCCACAGACUCUAGAAGGGACAUGAGGAUCACCCAUGUCGUGCAACGUU [Eternabot (L1) Solution 54] (Eterna round: R97, puzzle: Brourd's mod of Exclusion 4) | 0.0202 | 0.0162 | 
AAGAAACAUGAGGAUCACCCAUGUGAGGAUAUGACUAAGAAAAGAAAAGAAAGAAGAUUCAGAAGGCACAAAGG [salish99-ex1_r3_062] (puzzle: Exclusion 1) |  |  | apparent KD of MS2 coat protein [3]: 0.0912 µM; apparent KD of MS2 coat protein [2]: 0.0423 µM; apparent KD of MS2 coat protein [4]: 0.0461 µM
UCCUCACAUGAGGAUCACCCAUGUUAGGAUAUCCACCGUUGAUGGUGCCGAAUCGGUAGGAGAAGGAACAUACA [EX1 B.18] (Eterna round: R97, puzzle: Exclusion 1) | 0.0588 | 0.0241 | 
UCUUAUAGAGGAUAUACAGAUUAUUACAUGAGGAUCACCCAUGUUCUUCAAUGUAUAUAUGUAGAAGGCUAAGGAU [Mat - Exclusion 5 - JL Mod - D9] (Eterna round: R97, puzzle: Exclusion 5) | 0.316 | 0.111 | 
GUGAGAUAGUUAGUGGCCGACAUGAGGAUCACCCAUGUGAGGGAAAUGUUGAGGCGAAAGCUUUUUGCUCGUCUUUA [JR_SV3TOV1_Sub037] (puzzle: Sensor v3, turn-off variant 1) |  |  | apparent KD of MS2 coat protein [3]: 0.03 µM; apparent KD of MS2 coat protein [2]: 0.139 µM; apparent KD of MS2 coat protein [4]: 0.0348 µM
UUAUGAGAGCAGGAUAUCUUAUAUUUUUUUUAAAGAGAAGGGCUCACAUGAGGAUCACCCAUGUGGUCCUAGAU [LRO-Excl6-21-mod of 4.86 by jal] (Eterna round: R97, puzzle: Exclusion 6) | 0.234 | 0.0368 | 
CUGCUUUUGGUGAGGAUAUGCGGUAGCUGGGUACCGCAGAAGGCACAUGAGGAUCACCCAUGUGAUCUGAAAGC [Eternabot (L1) Solution 5] (Eterna round: R97, puzzle: Brourd's mod of Exclusion 4) | 0.687 | 0.0612 | 
AACAAGCUUUAAAGAUCCUACAUGAGGAUCACCCAUGUGCUCGUCUUGUAACGUACUGUGACGAAAGUCACGGUACG [JL TOV1 3.27] (Eterna round: R97, puzzle: Sensor, turn-off variant 1) | 0.205 | 0.278 | 
CGGUGCUUGUGGAAACAUGAGGAUCACCCAUGUUGAGUUAGCGAGGAUAUCGGUAACACAUGUCACGAGAAGGCGCGAACCAGA [Ex NG3 #33] (Eterna round: R96, puzzle: Exclusion NG 3) | 0.0396 | 0.0162 | apparent KD of MS2 coat protein [1]: 0.0181 µM

Sequence | apparent KD of MS2 coat protein (input ligand: FMN 200 uM) [µM] | apparent KD of MS2 coat protein (input ligand: none) [µM] | further results
AGCCACAGAGGAUAUACAUACAUCCAGUAGUAAAGAAUACUACAUGAGGAUCACCCAUGUAGAAGGCUGUGGCA [Omei Ex2 BD B13] (Eterna round: R97, puzzle: Exclusion 2) | 0.308 | 0.0864 | 
GAUUGACAUGAGGAUCACCCAUGUGAGGAUAUCGGCCGGACCGUGCCGGCUUCCGUCGCGAGAAGGCGCAUAGG [Exclusion 1 V40] (puzzle: Exclusion 1) |  |  | apparent KD of MS2 coat protein [3]: 0.0495 µM; apparent KD of MS2 coat protein [2]: 0.032 µM; apparent KD of MS2 coat protein [4]: 0.0373 µM
CAUACACAUGAGGAUCACCCAUGUGAGGAUAUUCGCGCGCGCGCCCGGGCGCGCGCGCGGAGAAGGCACGUGCG [My first try] (Eterna round: R97, puzzle: Exclusion 1) | 0.0767 | 0.0512 | 
GUCCGACAUGAGGAUCACCCAUGUGAGGAUAUACGAUUAGCUGCUAGGUAGUUAGUAUGUAGAAGGUGCAUGAA [EX1 #74] (Eterna round: R97, puzzle: Exclusion 1) | 0.0301 | 0.0175 | 
AGAUUACUGCGAGGAUAUACAUGAGGAUCACCCAUGUGGUGGUGUGAGGCAAAGCCUCACACCAUGUAGAAGGCGCAGUAAUCA [Mat - Exclusion NG 2 - Mod of JL - D22] (Eterna round: R96, puzzle: Exclusion NG 2) | 0.15 | 0.0445 | apparent KD of MS2 coat protein [1]: 0.0233 µM
GAUUAAUGCAAGGAUAUGCUAUUAUUUUAUUUUGCAGAAGGUGCAACAUGAGGAUCACCCAUGUUGGAGGGUAU [JR_E6_Sub026] (puzzle: Exclusion 6) |  |  | apparent KD of MS2 coat protein [2]: 0.0174 µM
ACAUGAGGAUCACCCAUGUAAUCAUGAUGGCUGAUGUAGACUCAGGAUAUGUGUGGCUUUCUAUCACAGAAGGGAGAAGACUGG [Deportation 37 - Jieux - Exclusion NG 3] (Eterna round: R96, puzzle: Exclusion NG 3) | 0.0597 | 0.129 | apparent KD of MS2 coat protein [1]: 0.116 µM
GCCUCACAUGAGGAUCACCCAUGUCAGGAUAUCUAAGGCGAGGUGCAGGCACUUCGUGAGAGAAGGGACGUCAA [Ercecequ] (puzzle: Exclusion 1) |  |  | apparent KD of MS2 coat protein [2]: 0.018 µM
CUCAUGUGAGGAUAUGUGCUGAUCUGUACUGUGAUUAGAGAACAGAAGGUACAUGAGGAUCACCCAUGUACACG [Eternabot (L2) Solution 46] (Eterna round: R97, puzzle: Exclusion 4) | 0.354 | 0.0147 | 
ACAAGCUUUUUGUUCGUCUUAUAAAAUCCUAAGAGGAAAACAUGAGGAUCACCCAUGUAACAAAGACGGACUCAUGU [Sesor Array 12 - Jieux - Sensor v3, turn-off variant 2] (puzzle: Sensor v3, turn-off variant 2) |  |  | apparent KD of MS2 coat protein [3]: 0.0134 µM; apparent KD of MS2 coat protein [2]: 0.125 µM; apparent KD of MS2 coat protein [4]: 0.0108 µM
UUUUAACAUGAGGAUCACCCAUGUGAGGAUAUCGAAAUUUAUAUUAAUAUUAUUAAUUCGAGAAGGCACAUUUU [JMF 37] (puzzle: Exclusion 1) |  |  | apparent KD of MS2 coat protein [2]: 0.126 µM
UAUAUAUAGUAAGGAUAUGUAUAUAUUUUAUGAACAGAAGGUACUGACAUGAGGAUCACCCAUGUUUUAGUGUGGGCAUGUAGA [JMF's solution 70] (Eterna round: R96, puzzle: Exclusion NG 1) | 0.0494 | 0.0648 | apparent KD of MS2 coat protein [1]: 0.0388 µM
AGAUCCACCGAGGAUAUUGGAGUGAUAUCACUCUAAGAAGGCGGUACAUGAGGAUCACCCAUGUGAUACCCAGA [Eternabot (Original) Solution 15] (Eterna round: R97, puzzle: Exclusion 6) | 0.551 | 0.316 | 
UAAUGUAUAUAGGAUAUCUAGCUGGUAACAGCUAGAGAAGGAUGUACAUGAGGAUCACCCAUGUAAAUCUCAAU [Ex6/12-B2] (Eterna round: R97, puzzle: Exclusion 6) | 0.0325 | 0.0209 | 
AAACAAGCAACGAGAUCCCACAUGAGGAUCACCCAUGUCAACUGGAGUUUUAAAUCUUUAGGCUCGUUUUAUAACAA [S_tov1_V1.2] (Eterna round: R97, puzzle: Sensor, turn-off variant 1) | 0.0504 | 0.0568 | 
